The target of this assay is POLQ-FLAG (DNA polymerase θ) (human, UniProt O75417 1-2590). Nature of the assay: co-IP.
Sequence of POLQ-FLAG (DNA polymerase θ) (O75417 whole entry): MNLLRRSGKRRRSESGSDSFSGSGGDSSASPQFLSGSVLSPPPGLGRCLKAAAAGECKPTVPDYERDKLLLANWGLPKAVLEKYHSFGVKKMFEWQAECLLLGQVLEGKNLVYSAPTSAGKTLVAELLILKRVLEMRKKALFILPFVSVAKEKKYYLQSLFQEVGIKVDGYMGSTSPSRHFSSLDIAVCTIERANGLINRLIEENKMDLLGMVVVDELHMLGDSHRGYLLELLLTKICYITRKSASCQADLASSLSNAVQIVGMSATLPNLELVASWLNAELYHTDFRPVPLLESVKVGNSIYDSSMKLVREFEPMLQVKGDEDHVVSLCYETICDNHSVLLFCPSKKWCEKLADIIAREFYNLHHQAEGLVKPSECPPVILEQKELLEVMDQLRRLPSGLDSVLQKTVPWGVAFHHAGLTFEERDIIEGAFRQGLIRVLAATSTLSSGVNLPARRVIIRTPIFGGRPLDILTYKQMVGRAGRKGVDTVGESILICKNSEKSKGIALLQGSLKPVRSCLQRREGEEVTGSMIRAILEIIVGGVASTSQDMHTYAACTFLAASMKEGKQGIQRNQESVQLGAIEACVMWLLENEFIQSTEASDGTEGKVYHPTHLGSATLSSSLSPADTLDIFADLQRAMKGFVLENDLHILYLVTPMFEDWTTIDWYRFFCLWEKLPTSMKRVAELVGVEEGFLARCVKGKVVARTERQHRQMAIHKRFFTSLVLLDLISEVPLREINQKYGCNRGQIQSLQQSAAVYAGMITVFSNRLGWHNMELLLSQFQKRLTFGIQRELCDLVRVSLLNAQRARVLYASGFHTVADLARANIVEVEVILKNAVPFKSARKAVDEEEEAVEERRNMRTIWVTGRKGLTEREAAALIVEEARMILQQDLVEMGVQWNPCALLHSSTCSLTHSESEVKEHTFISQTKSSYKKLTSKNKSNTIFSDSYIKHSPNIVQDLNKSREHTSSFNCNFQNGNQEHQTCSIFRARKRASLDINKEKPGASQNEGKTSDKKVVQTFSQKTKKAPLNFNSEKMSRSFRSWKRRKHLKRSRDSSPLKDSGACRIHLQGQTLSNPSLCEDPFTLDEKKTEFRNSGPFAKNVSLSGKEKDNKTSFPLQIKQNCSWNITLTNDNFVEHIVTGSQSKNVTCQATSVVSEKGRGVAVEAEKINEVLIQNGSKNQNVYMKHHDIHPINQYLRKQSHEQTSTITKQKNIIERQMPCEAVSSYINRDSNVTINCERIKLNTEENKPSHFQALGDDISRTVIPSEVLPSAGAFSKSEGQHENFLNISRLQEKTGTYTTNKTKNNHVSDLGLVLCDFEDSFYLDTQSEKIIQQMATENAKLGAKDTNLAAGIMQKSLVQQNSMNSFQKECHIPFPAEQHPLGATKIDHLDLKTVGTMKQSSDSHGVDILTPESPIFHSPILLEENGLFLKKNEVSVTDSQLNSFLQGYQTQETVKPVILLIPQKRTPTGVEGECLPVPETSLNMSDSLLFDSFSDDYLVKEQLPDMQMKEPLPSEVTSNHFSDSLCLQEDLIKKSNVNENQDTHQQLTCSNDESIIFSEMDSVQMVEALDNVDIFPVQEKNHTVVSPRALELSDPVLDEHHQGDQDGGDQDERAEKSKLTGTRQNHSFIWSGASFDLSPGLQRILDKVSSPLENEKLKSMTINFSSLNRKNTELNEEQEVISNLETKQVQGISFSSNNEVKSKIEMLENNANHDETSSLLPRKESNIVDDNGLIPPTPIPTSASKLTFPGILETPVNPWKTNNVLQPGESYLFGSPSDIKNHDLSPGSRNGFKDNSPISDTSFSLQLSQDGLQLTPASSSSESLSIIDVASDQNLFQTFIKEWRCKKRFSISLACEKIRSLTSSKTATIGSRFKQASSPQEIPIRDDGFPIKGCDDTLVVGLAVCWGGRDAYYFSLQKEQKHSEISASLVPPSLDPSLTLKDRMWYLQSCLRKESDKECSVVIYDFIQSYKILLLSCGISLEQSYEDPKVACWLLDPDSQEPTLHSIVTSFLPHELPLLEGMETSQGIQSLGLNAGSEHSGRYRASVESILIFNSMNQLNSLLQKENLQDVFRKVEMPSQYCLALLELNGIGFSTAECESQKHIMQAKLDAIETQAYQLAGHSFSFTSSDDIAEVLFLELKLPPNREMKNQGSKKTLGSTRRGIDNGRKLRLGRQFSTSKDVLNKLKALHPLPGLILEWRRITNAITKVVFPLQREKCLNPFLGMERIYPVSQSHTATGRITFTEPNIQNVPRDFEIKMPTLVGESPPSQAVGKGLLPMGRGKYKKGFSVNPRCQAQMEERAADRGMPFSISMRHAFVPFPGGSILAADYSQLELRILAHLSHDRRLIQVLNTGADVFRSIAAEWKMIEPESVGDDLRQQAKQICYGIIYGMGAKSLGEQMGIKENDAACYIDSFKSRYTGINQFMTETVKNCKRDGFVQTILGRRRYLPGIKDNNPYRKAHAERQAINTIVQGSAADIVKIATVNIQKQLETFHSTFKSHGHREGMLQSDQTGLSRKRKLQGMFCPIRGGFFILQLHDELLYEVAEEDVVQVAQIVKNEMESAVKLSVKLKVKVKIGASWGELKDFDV

B1: MRE11 (natural protein, human (endogenous in U2OS), UniProt P49959 1-708, looked up)
chain: MSTADALDDENTFKILVATDIHLGFMEKDAVRGNDTFVTLDEILRLAQENEVDFILLGGDLFHENKPSRKTLHTCLELLRKYCMGDRPVQFEILSDQSVNFGFSKFPWVNYQDGNLNISIPVFSIHGNHDDPTGADALCALDILSCAGFVNHFGRSMSVEKIDISPVLLQKGSTKIALYGLGSIPDERLYRMFVNKKVTMLRPKEDENSWFNLFVIHQNRSKHGSTNFIPEQFLDDFIDLVIWGHEHECKIAPTKNEQQLFYISQPGSSVVTSLSPGEAVKKHVGLLRIKGRKMNMHKIPLHTVRQFFMEDIVLANHPDIFNPDNPKVTQAIQSFCLEKIEEMLENAERERLGNSHQPEKPLVRLRVDYSGGFEPFSVLRFSQKFVDRVANPKDIIHFFRHREQKEKTGEEINFGKLITKPSEGTTLRVEDLVKQYFQTAEKNVQLSLLTERGMGEAVQEFVDKEEKDAIEELVKYQLEKTQRFLKERHIDALEDKIDEEVRRFRETRQKNTNEEDDEVREAMTRARALRSQSEESASAFSADDLMSIDLAEQMANDSDDSISAATNKGRGRGRGRRGGRGQNSASRGGSQRGRADTGLETSTRSRNSKTAVSASRNMSIIDAFKSTRQQPSRNVTTKNYSEVIEVDESDVEEDIFPTTSKTDQRWSSTSSSKIMSQSQVSKGVDFESSEDDDDDPFMNTSSLRRNRR
As to B1, the “fold level in POLQ-FLAG IP, BRCA2-deficient over BRCA2-proficient cells” value is roughly 4 fold.

These data come from article PMC7397735 (NAR Cancer, 2020).
